Source: the Human Domainome abundance scans (Beltran et al. 2025)
± gives the uncertainty stated by the source.

Experiment: abundance fitness (aPCA) (normalised: wild type 0, dead -1); higher = more abundant; growth selection in yeast, the domain comes from the species named
Conditions: Homo sapiens

| Substance | abundance fitness |
| --- | --- |
| E3 ubiquitin-protein ligase NEDD4-like P196R, Q96PU5 | -0.106 ± 0.063 |
| E3 ubiquitin-protein ligase NEDD4-like N205V, Q96PU5 | -0.232 ± 0.068 |
| E3 ubiquitin-protein ligase NEDD4-like S231V, Q96PU5 | -0.062 ± 0.067 |
| E3 ubiquitin-protein ligase NEDD4-like P191F, Q96PU5 | -0.326 ± 0.12 |
| E3 ubiquitin-protein ligase NEDD4-like L190C, Q96PU5 | 0.09 ± 0.076 |
| E3 ubiquitin-protein ligase NEDD4-like S231I, Q96PU5 | 0.087 ± 0.12 |
| E3 ubiquitin-protein ligase NEDD4-like P192F, Q96PU5 | -0.296 ± 0.075 |
| E3 ubiquitin-protein ligase NEDD4-like Y210G, Q96PU5 | -0.621 ± 0.057 |
| E3 ubiquitin-protein ligase NEDD4-like P194D, Q96PU5 | -0.008 ± 0.09 |
| E3 ubiquitin-protein ligase NEDD4-like R208M, Q96PU5 | -0.062 ± 0.078 |
| E3 ubiquitin-protein ligase NEDD4-like L206R, Q96PU5 | 0.04 ± 0.056 |
| E3 ubiquitin-protein ligase NEDD4-like W221C, Q96PU5 | -0.051 ± 0.079 |
| E3 ubiquitin-protein ligase NEDD4-like H222V, Q96PU5 | -0.045 ± 0.059 |
| E3 ubiquitin-protein ligase NEDD4-like R208D, Q96PU5 | 0.067 ± 0.098 |
| E3 ubiquitin-protein ligase NEDD4-like N215L, Q96PU5 | -0.205 ± 0.07 |
| E3 ubiquitin-protein ligase NEDD4-like P193Y, Q96PU5 | -0.057 ± 0.062 |
| E3 ubiquitin-protein ligase NEDD4-like L206T, Q96PU5 | 0.011 ± 0.08 |
| E3 ubiquitin-protein ligase NEDD4-like V212G, Q96PU5 | -0.417 ± 0.053 |
| E3 ubiquitin-protein ligase NEDD4-like P194F, Q96PU5 | -0.443 ± 0.084 |
| E3 ubiquitin-protein ligase NEDD4-like V203K, Q96PU5 | -0.064 ± 0.078 |
| E3 ubiquitin-protein ligase NEDD4-like V212P, Q96PU5 | -0.485 ± 0.11 |
| E3 ubiquitin-protein ligase NEDD4-like M227G, Q96PU5 | -0.039 ± 0.064 |
| E3 ubiquitin-protein ligase NEDD4-like S225I, Q96PU5 | -0.038 ± 0.1 |
| E3 ubiquitin-protein ligase NEDD4-like R223P, Q96PU5 | -0.145 ± 0.11 |

| Substance | abundance fitness |
| --- | --- |
| E3 ubiquitin-protein ligase NEDD4-like P197T, Q96PU5 | -0.017 ± 0.087 |
| E3 ubiquitin-protein ligase NEDD4-like R223Q, Q96PU5 | -0.153 ± 0.082 |
| E3 ubiquitin-protein ligase NEDD4-like Q220D, Q96PU5 | -0.258 ± 0.088 |
| E3 ubiquitin-protein ligase NEDD4-like Q185L, Q96PU5 | -0.542 ± 0.081 |
| E3 ubiquitin-protein ligase NEDD4-like N216W, Q96PU5 | 0.029 ± 0.062 |
| E3 ubiquitin-protein ligase NEDD4-like Y211I, Q96PU5 | -0.601 ± 0.065 |
| E3 ubiquitin-protein ligase NEDD4-like T218S, Q96PU5 | -0.236 ± 0.07 |
| E3 ubiquitin-protein ligase NEDD4-like H222F, Q96PU5 | -0.052 ± 0.089 |
| E3 ubiquitin-protein ligase NEDD4-like S230A, Q96PU5 | -0.024 ± 0.058 |
| E3 ubiquitin-protein ligase NEDD4-like W199G, Q96PU5 | -0.413 ± 0.063 |
| E3 ubiquitin-protein ligase NEDD4-like E232L, Q96PU5 | -0.158 ± 0.19 |
| E3 ubiquitin-protein ligase NEDD4-like R208P, Q96PU5 | -0.908 ± 0.099 |
| E3 ubiquitin-protein ligase NEDD4-like N213P, Q96PU5 | -0.383 ± 0.24 |
| E3 ubiquitin-protein ligase NEDD4-like E200L, Q96PU5 | -0.266 ± 0.08 |
| E3 ubiquitin-protein ligase NEDD4-like P191W, Q96PU5 | -0.378 ± 0.058 |
| E3 ubiquitin-protein ligase NEDD4-like V212M, Q96PU5 | -0.076 ± 0.076 |
| E3 ubiquitin-protein ligase NEDD4-like S184M, Q96PU5 | 0.884 ± 0.2 |
| E3 ubiquitin-protein ligase NEDD4-like T219G, Q96PU5 | -0.632 ± 0.055 |
| E3 ubiquitin-protein ligase NEDD4-like L206A, Q96PU5 | 0.124 ± 0.059 |
| E3 ubiquitin-protein ligase NEDD4-like R223S, Q96PU5 | -0.154 ± 0.061 |
| E3 ubiquitin-protein ligase NEDD4-like W221D, Q96PU5 | -0.029 ± 0.1 |
| E3 ubiquitin-protein ligase NEDD4-like P193H, Q96PU5 | -0.058 ± 0.11 |
| E3 ubiquitin-protein ligase NEDD4-like E232D, Q96PU5 | -0.354 ± 0.12 |
| E3 ubiquitin-protein ligase NEDD4-like K202E, Q96PU5 | -0.295 ± 0.095 |

| Substance | abundance fitness |
| --- | --- |
| E3 ubiquitin-protein ligase NEDD4-like N213Y, Q96PU5 | -0.349 ± 0.39 |
| E3 ubiquitin-protein ligase NEDD4-like H186L, Q96PU5 | -0.185 ± 0.074 |
| E3 ubiquitin-protein ligase NEDD4-like S184L, Q96PU5 | -0.599 ± 0.14 |
| E3 ubiquitin-protein ligase NEDD4-like H186W, Q96PU5 | -1.24 ± 0.064 |
| E3 ubiquitin-protein ligase NEDD4-like V203S, Q96PU5 | -0.144 ± 0.066 |
| E3 ubiquitin-protein ligase NEDD4-like S225E, Q96PU5 | 0.041 ± 0.081 |
| E3 ubiquitin-protein ligase NEDD4-like M227W, Q96PU5 | -0.313 ± 0.07 |
| E3 ubiquitin-protein ligase NEDD4-like P192L, Q96PU5 | -0.173 ± 0.072 |
| E3 ubiquitin-protein ligase NEDD4-like D204K, Q96PU5 | -0.894 ± 0.13 |
| E3 ubiquitin-protein ligase NEDD4-like G207M, Q96PU5 | -0.27 ± 0.067 |
| E3 ubiquitin-protein ligase NEDD4-like T209C, Q96PU5 | -0.146 ± 0.067 |
| E3 ubiquitin-protein ligase NEDD4-like G207P, Q96PU5 | -0.756 ± 0.053 |
| E3 ubiquitin-protein ligase NEDD4-like S230K, Q96PU5 | -0.186 ± 0.092 |
| E3 ubiquitin-protein ligase NEDD4-like E201T, Q96PU5 | -0.098 ± 0.1 |
| E3 ubiquitin-protein ligase NEDD4-like L226Y, Q96PU5 | -0.043 ± 0.091 |
| E3 ubiquitin-protein ligase NEDD4-like Q185G, Q96PU5 | -0.723 ± 0.058 |
| E3 ubiquitin-protein ligase NEDD4-like Q220C, Q96PU5 | -0.06 ± 0.071 |
| E3 ubiquitin-protein ligase NEDD4-like Y211V, Q96PU5 | -0.736 ± 0.06 |
| E3 ubiquitin-protein ligase NEDD4-like L195S, Q96PU5 | -0.182 ± 0.33 |
| E3 ubiquitin-protein ligase NEDD4-like L195A, Q96PU5 | -0.072 ± 0.22 |
| E3 ubiquitin-protein ligase NEDD4-like Q185N, Q96PU5 | 0.154 ± 0.12 |
| E3 ubiquitin-protein ligase NEDD4-like V212A, Q96PU5 | -0.102 ± 0.069 |
| E3 ubiquitin-protein ligase NEDD4-like T209R, Q96PU5 | -0.096 ± 0.058 |
| E3 ubiquitin-protein ligase NEDD4-like L226W, Q96PU5 | -0.309 ± 0.069 |

| Substance | abundance fitness |
| --- | --- |
| E3 ubiquitin-protein ligase NEDD4-like S225D, Q96PU5 | -0.006 ± 0.065 |
| E3 ubiquitin-protein ligase NEDD4-like M227L, Q96PU5 | -0.027 ± 0.067 |
| E3 ubiquitin-protein ligase NEDD4-like P194W, Q96PU5 | -0.327 ± 0.076 |
| E3 ubiquitin-protein ligase NEDD4-like P191C, Q96PU5 | -0.155 ± 0.087 |
| E3 ubiquitin-protein ligase NEDD4-like P224T, Q96PU5 | -0.828 ± 0.11 |
| E3 ubiquitin-protein ligase NEDD4-like G198N, Q96PU5 | -0.095 ± 0.11 |
| E3 ubiquitin-protein ligase NEDD4-like K202H, Q96PU5 | -0.173 ± 0.078 |
| E3 ubiquitin-protein ligase NEDD4-like D204S, Q96PU5 | -0.037 ± 0.064 |
| E3 ubiquitin-protein ligase NEDD4-like T218H, Q96PU5 | -0.017 ± 0.1 |
| E3 ubiquitin-protein ligase NEDD4-like T218V, Q96PU5 | 0.092 ± 0.056 |
| E3 ubiquitin-protein ligase NEDD4-like P224E, Q96PU5 | -0.612 ± 0.086 |
| E3 ubiquitin-protein ligase NEDD4-like Q185R, Q96PU5 | -0.633 ± 0.068 |
| E3 ubiquitin-protein ligase NEDD4-like T219I, Q96PU5 | -0.56 ± 0.081 |
| E3 ubiquitin-protein ligase NEDD4-like P194K, Q96PU5 | 0.071 ± 0.063 |
| E3 ubiquitin-protein ligase NEDD4-like P196Q, Q96PU5 | -0.217 ± 0.073 |
| E3 ubiquitin-protein ligase NEDD4-like T209P, Q96PU5 | -0.002 ± 0.059 |
| E3 ubiquitin-protein ligase NEDD4-like N215M, Q96PU5 | -0.077 ± 0.062 |
| E3 ubiquitin-protein ligase NEDD4-like V212I, Q96PU5 | -0.356 ± 0.12 |
| E3 ubiquitin-protein ligase NEDD4-like R208I, Q96PU5 | -0.504 ± 0.12 |
| E3 ubiquitin-protein ligase NEDD4-like P224V, Q96PU5 | -1.01 ± 0.086 |
| E3 ubiquitin-protein ligase NEDD4-like H214Q, Q96PU5 | -0.211 ± 0.089 |
| E3 ubiquitin-protein ligase NEDD4-like T209Y, Q96PU5 | -0.649 ± 0.11 |
| E3 ubiquitin-protein ligase NEDD4-like L226C, Q96PU5 | 0.063 ± 0.071 |
